Laboratory results as given in patent US20120316071A1 (published 2012).
Changes are numbered by the printed parent chain. Numbers in names are those of the source.

Key:
[1] = target: T1, rHuman EGF R/Fc Chimera, CF (R&D Systems Cat#344-ER) (human, UniProt P00533 25-645); test: ECL multispot (MSD), antigen spotted, 10 nM Fab; blank spot of this row 204
T1 construct: Bought recombinant protein; also called epidermal growth factor receptor; Fc part of the bought chimera not given

[2] = target: T2, rHuman Notch-1/Fc Chimera, CF (R&D Systems Cat#3647-TK) (human, UniProt P46531 19-526); test: as above
T2 construct: Bought recombinant protein; Fc part of the bought chimera not given

[3] = target: T3, rHuman P-Cadherin/Fc Chimera, CF (R&D Systems Cat#861-PC) (human, UniProt P22223 108-654); test: as above
T3 construct: Bought recombinant protein; Fc part of the bought chimera not given

[4] = target: T4, rHuman IGF-1 sR, (IGF-1 sR), CF (R&D Systems Cat#391-GR) (human, UniProt P08069 31-932); test: as above
T4 construct: Bought recombinant soluble receptor; also called insulin-like growth factor-1 soluble receptor

[5] = target: T5, rHuman CD44/Fc Chimera, CF (R&D Systems Cat#3660-CD) (human, UniProt P16070 21-220); test: as above
T5 construct: Bought recombinant protein; Fc part of the bought chimera not given

[6] = target: T6, rHuman Erythropoietin R/Fc Chimera, CF (R&D Systems Cat#963-ER) (human, UniProt P19235 25-250); test: as above
T6 construct: Bought recombinant protein; also called EPO R; EPO R/Fc; Fc part of the bought chimera not given
T6 sequence (looked up): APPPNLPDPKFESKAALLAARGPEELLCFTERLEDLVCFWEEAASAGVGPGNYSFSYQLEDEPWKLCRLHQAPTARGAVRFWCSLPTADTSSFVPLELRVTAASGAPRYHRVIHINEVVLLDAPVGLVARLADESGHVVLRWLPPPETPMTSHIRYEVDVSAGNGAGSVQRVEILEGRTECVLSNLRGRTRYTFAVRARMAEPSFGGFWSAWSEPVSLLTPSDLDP

[7] = target: T7, rHuman ErbB2/Fc Chimera, CF (R&D Systems Cat#1129-ER) (human, UniProt P04626 23-652); test: as above
T7 construct: Bought recombinant protein; also called human epidermal growth factor 2 receptor; Fc part of the bought chimera not given

[8] = target: T8, rHuman HGF R/c-MET/Fc Chimera, CF (R&D Systems Cat#358-MT/CF) (human, UniProt P08581 25-932); test: as above
T8 construct: Bought recombinant protein; also called HGF R/Fc; hepatocyte growth factor receptor; Fc part of the bought chimera not given
T8 sequence (P08581 25-932, change not shown): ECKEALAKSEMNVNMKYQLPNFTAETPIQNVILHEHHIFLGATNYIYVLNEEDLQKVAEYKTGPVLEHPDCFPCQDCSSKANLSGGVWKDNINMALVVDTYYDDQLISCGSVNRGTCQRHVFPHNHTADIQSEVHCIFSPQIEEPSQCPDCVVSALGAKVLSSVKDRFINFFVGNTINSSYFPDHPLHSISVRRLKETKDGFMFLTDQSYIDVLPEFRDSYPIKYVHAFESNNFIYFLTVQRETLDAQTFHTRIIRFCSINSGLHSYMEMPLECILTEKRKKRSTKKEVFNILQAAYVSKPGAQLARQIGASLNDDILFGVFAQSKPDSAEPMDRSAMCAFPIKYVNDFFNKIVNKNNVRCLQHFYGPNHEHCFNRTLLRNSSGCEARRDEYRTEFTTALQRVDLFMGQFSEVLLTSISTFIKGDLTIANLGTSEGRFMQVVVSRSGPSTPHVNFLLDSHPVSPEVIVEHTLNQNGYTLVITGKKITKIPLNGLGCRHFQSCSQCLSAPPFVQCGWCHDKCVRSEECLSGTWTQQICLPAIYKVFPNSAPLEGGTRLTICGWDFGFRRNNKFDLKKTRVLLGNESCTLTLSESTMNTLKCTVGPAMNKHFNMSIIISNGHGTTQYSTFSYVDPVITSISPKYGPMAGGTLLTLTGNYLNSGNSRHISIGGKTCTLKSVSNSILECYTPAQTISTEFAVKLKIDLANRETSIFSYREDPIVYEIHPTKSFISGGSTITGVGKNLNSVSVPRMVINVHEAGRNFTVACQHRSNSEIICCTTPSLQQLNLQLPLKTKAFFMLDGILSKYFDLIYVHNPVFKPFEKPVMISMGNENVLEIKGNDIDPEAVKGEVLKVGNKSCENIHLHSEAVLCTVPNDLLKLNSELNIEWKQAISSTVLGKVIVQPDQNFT

[9] = target: T1, rHuman EGF R/Fc Chimera, CF (R&D …); test: ECL multispot (MSD), antigen spotted, 10 nM Fab; blank spot of this row 271
[10] = target: T2, rHuman Notch-1/Fc Chimera, CF (R&D …); test: as above
[11] = target: T3, rHuman P-Cadherin/Fc Chimera, CF (R&D …); test: as above
[12] = target: T4, rHuman IGF-1 sR, (IGF-1 sR), CF (R&D …); test: as above
[13] = target: T5, rHuman CD44/Fc Chimera, CF (R&D Systems …); test: as above
[14] = target: T6, rHuman Erythropoietin R/Fc Chimera, CF …; test: as above
[15] = target: T7, rHuman ErbB2/Fc Chimera, CF (R&D …); test: as above
[16] = target: T8, rHuman HGF R/c-MET/Fc Chimera, CF (R&D …); test: as above
[17] = target: T1, rHuman EGF R/Fc Chimera, CF (R&D …); test: ECL multispot (MSD), antigen spotted, 10 nM Fab; blank spot of this row 239
[18] = target: T2, rHuman Notch-1/Fc Chimera, CF (R&D …); test: as above
[19] = target: T3, rHuman P-Cadherin/Fc Chimera, CF (R&D …); test: as above
[20] = target: T4, rHuman IGF-1 sR, (IGF-1 sR), CF (R&D …); test: as above
[21] = target: T5, rHuman CD44/Fc Chimera, CF (R&D Systems …); test: as above
[22] = target: T6, rHuman Erythropoietin R/Fc Chimera, CF …; test: as above
[23] = target: T7, rHuman ErbB2/Fc Chimera, CF (R&D …); test: as above
[24] = target: T8, rHuman HGF R/c-MET/Fc Chimera, CF (R&D …); test: as above
[25] = target: T1, rHuman EGF R/Fc Chimera, CF (R&D …); test: ECL multispot (MSD), antigen spotted, 10 nM Fab; blank spot of this row 248
[26] = target: T2, rHuman Notch-1/Fc Chimera, CF (R&D …); test: as above
[27] = target: T3, rHuman P-Cadherin/Fc Chimera, CF (R&D …); test: as above
[28] = target: T4, rHuman IGF-1 sR, (IGF-1 sR), CF (R&D …); test: as above
[29] = target: T5, rHuman CD44/Fc Chimera, CF (R&D Systems …); test: as above
[30] = target: T6, rHuman Erythropoietin R/Fc Chimera, CF …; test: as above
[31] = target: T7, rHuman ErbB2/Fc Chimera, CF (R&D …); test: as above
[32] = target: T8, rHuman HGF R/c-MET/Fc Chimera, CF (R&D …); test: as above
[33] = target: T9, rHuman Erythropoietin R/Fc Chimera, CF (R&D Systems Cat#963-ER) (human, UniProt P19235 25-250); test: Multispot ECL (MSD) binding screen, antigen spotted on plate; hit = signal/blank >= 4
T9 construct: Bought Fc chimera; also called Epo R/Fc chimera; EPO R/Fc; Fc part of the bought chimera not given
T9 sequence (looked up): T6 sequence (looked up)

B1: Fab VH1-46_IGHD6-6*01_IGHJ1*01 S102A/S103P/S104F (APF) & L6_IGKJ1*01 (Fab, V domains shown)
VH: QVQLVQSGAEVKKPGASVKVSCKASGYTFTSYYMHWVRQAPGQGLEWMGIINPSGGSTSYAQKFQGRVTMTRDTSTSTVYMELSSLRSEDTAVYYCAREEYAPFSAEYFQHWGQGTLVTVSS
VL: not shown
notes: Tested as Fab made in E. coli; The heavy chain was cloned in Plasmid A (CH1 constant region, His6 and Flag tags); The kappa light chain was cloned in Plasmid C (kappa CL); also called APF triple mutant; H:APF & L:wt
[1]
  ECL signal: 237
[2]
  ECL signal: 334
[3]
  ECL signal: 208
[4]
  ECL signal: 197
[5]
  ECL signal: 96
[6]
  ECL signal: 329
[7]
  ECL signal: 157
[8]
  ECL signal: 272
[9]
  ECL signal: 272
[10]
  ECL signal: 257
[11]
  ECL signal: 297
[12]
  ECL signal: 241
[13]
  ECL signal: 189
[14]
  ECL signal: 304
[15]
  ECL signal: 330
[16]
  ECL signal: 306
[17]
  ECL signal: 216
[18]
  ECL signal: 130
[19]
  ECL signal: 256
[20]
  ECL signal: 174
[21]
  ECL signal: 236
[22]
  ECL signal: 285
[23]
  ECL signal: 340
[24]
  ECL signal: 171

B2: Fab VH1-46_IGHD6-6*01_IGHJ1*01 S102A/S103P/S104F G55D & L6_IGKJ1*01 (Fab, V domains shown)
VH: B1 VH with G55D
VL: not shown
notes: Tested as Fab (CH1 with His6 and Flag tags, kappa CL); also called APF G55D
[25]
  ECL signal: 272
[26]
  ECL signal: 302
[27]
  ECL signal: 243
[28]
  ECL signal: 191
[29]
  ECL signal: 173
[30]
  ECL signal: 329
[31]
  ECL signal: 302
[32]
  ECL signal: 268

B3: Fab VH1-46_IGHD7-27*01_IGHJ2*01 & A27_IGKJ1*01 (Fab, V domains shown)
VH: QVQLVQSGAEVKKPGASVKVSCKASGYTFTSYYMHWVRQAPGQGLEWMGIINPSGGSTSYAQKFQGRVTMTRDTSTSTVYMELSSLRSEDTAVYYCARANWGYWYFDLWGRGTLVTVSS
VL: not shown
notes: Fab; expressed in E. coli from Plasmid A (CH1, His6 and Flag tags) and Plasmid C (kappa CL)
[33]
  binding result: binds
